The test system of data set [1] is P. aeruginosa strain ATCC 17647. Briefly: Minimal Biofilm Eradicating Concentration (MBEC), Calgary Biofilm Device. Format: cell-based, Pseudomonas aeruginosa. The conditions noted are these: 24 h biofilm, 24 h treatment; minimum concentration removing >95% of biofilm biomass (crystal violet). An excerpt:
All samples were examined in triplicate.

The test system of data set [2] is P. aeruginosa. Briefly: Time-kill assay of GN lysin activity. To be noted: for Log10 CFU/mL T = 3 hr / Log10 CFU/mL T = l hr: lysin 10 μg/mL, T = 0 7.8; for Log10 CFU/mL T = 3 hr: buffer control 7.2, limit of detection 3.7; for Log10 CFU/mL T = l hr: buffer control 7.7. Format: cell-based, Pseudomonas aeruginosa. How it is done: All treatments were incubated at 37° C. with aeration.

In data set [3] the test system is P. aeruginosa. The data set can be described thus: Minimal inhibitory concentration (MIC), modified CLSI broth microdilution in CAA or CAA/HuS. The conditions noted are these: for MIC (μg/mL) in CAA: CAA media; for MIC (μg/mL in CAA/HuS): CAA supplemented with 25% human serum. Format: cell-based, Pseudomonas aeruginosa.
Another data set deals with human erythrocytes. The class given is cell-based. As for the experimental part: The hemolytic activity of the GN lysins was measured as the amount of hemoglobin released by the lysis of human erythrocytes (30). Briefly, 3 ml of fresh human blood cells (hRBCs) obtained from pooled healthy donors (BioreclamationIVT) in a polycarbonate tube containing heparin was centrifuged at 1,000×g for 5 min at 4° C. The erythrocytes obtained were washed three times with phosphate-buffered saline (PBS) solution (pH 7.2) and resuspended in […]. […] Intact erythrocytes were pelleted by centrifugation at 1,000×g for 5 min at 4° C., and the supernatant was transferred to a new 96-well plate. The release of hemoglobin was monitored by measuring the absorbance at 570 nm.

The test system of data set [4] is carbapenem-resistant clinical strain, WC-452. The data set can be described thus: Checkerboard assay to examine synergy with antibiotics in CAA/HuS. The class given is cell-based, P. aeruginosa.
[5] abbreviates: CAA/HuS, ‡ indicates bactericidal activity.
The mark [6] stands for this setting: HEPES buffer, ‡ indicates bactericidal activity.

B1: GN10: Native lysin, GenBank YP_002600773.1, SEQ ID NO: 22 (protein)
chain: MSKQGGVKVAQAVAALSSPGLKIDGIVGKATRAAVSSMPSSQKAATDKILQSAGIGSLDSLLAEPAAATSDTFREVVLAVAREARKRGLNPAFYVAHIALETGWGRSVPKLPDGRSSYNYAGLKYAAVKTQVKGKTETNTLEYIKSLPKTVRDSFAVFASAGDFSRVYFWYLLDSPSAYRYPGLKNAKTAQEFGDILQKGGYATDPAYAAKVASIASTAVARYGSDVSSVA
modifications: Pseudomonas phage phi2954
In the case of B1, the “MBEC” value in data set [1] worked out at 0.5 µg/mL. Also, in the data set on P. aeruginosa [2] (setting [5]), the “Log10 CFU/mL T = 3 hr” value is reported as 7.4 Log10 CFU/mL. Moreover, the “Log10 CFU/mL T = l hr” value in the data set with P. aeruginosa [2] (CAA/HuS) is reported as 7.4 Log10 CFU/mL. Moreover, in the data set with P. aeruginosa [2] (setting [6]), the “Log10 CFU/mL T = 3 hr” value is <3.7‡ Log10 CFU/mL and the “Log10 CFU/mL T = l hr” value was 5.7 Log10 CFU/mL. For the same molecule, in the data set on P. aeruginosa [3], the “MIC (μg/mL) in CAA” value amounted to 8 µg/mL and the “MIC (μg/mL in CAA/HuS)” value turned out to be 16 µg/mL. The hemolytic activity entry with human erythrocytes is “no hemolytic activity whatsoever”.

B2: GN9: Native lysin, GenBank ECJ78460.1, SEQ ID NO: 21 (protein)
chain: MKNFNEIIEHVLKHEGGYVNDPKDLGGETKYGITKRFYPDLDIKNLTIEQATEIYKKDYWDKNKVESLPQNLWHIYFDMCVNMGKRTAVKVLQRAAVNRGRDIEVDGGLGPATIGALKGVELDRVRAFRVKYYVDLITARPEQEKFYLGWFRRATEV
modifications: Marine metagenome
For B2, in data set [1], the “MBEC” value is 0.125 µg/mL. Also, in the data set on P. aeruginosa [2] (setting [5]), the “Log10 CFU/mL T = 3 hr” value turned out to be 7.3 Log10 CFU/mL. Further, in the data set with P. aeruginosa [2] (CAA/HuS), the “Log10 CFU/mL T = l hr” value came out at 6.8 Log10 CFU/mL. Also, in the data set with P. aeruginosa [2] (setting [6]), the “Log10 CFU/mL T = 3 hr” value was determined as 5.7 Log10 CFU/mL and the “Log10 CFU/mL T = l hr” value amounted to 6.7 Log10 CFU/mL. For the same molecule, in the data set with P. aeruginosa [3], the “MIC (μg/mL) in CAA” value was determined as 8 µg/mL and the “MIC (μg/mL in CAA/HuS)” value was determined as 2 µg/mL. Further, the hemolytic activity result in the data set with human erythrocytes is given as “no hemolytic activity whatsoever”.

B3: GN108: Native lysin, GenBank YP_009288673.1, SEQ ID NO: 26 (protein)
chain: MILTKDGFSIIRNELFEGKLDQTQVDAINFIVEKATEYGLTYPEAAYLLATIYHETGLPSGYRTMQPIKEAGSDSYLRSKKYYPYIGYGYVQLTWEENYERIGKLIGIDLVKNPEKALEPLIAIQIAIKGMLNGWFTGVGFRRKRPVSKYNKQQYVAARNIINGKDKAELIAKYAIIFERALRSL
modifications: Acinetobacter phage phiAB6
Consider B3, for which the “synergy with antibiotics in the checkerboard assay” value in data set [4] is “synergize with a range of antibiotics”. Also, the “FICI, Amikacin” value in data set [4] (lysin + amikacin) was 0.156. Moreover, the “FICI, Azithromycin” value in data set [4] (lysin + azithromycin) was 0.060. Also, the “FICI, Aztreonam” value in data set [4] (lysin + aztreonam) was found to be 0.250. For the same molecule, the “FICI, Ciprofloxacin” value in data set [4] (lysin + ciprofloxacin) stood at 0.281. Moreover, the “FICI, Colistin” value in data set [4] (lysin + colistin) was determined as 0.133. The “FICI, Fosfomycin” value in data set [4] (lysin + fosfomycin) stood at 0.188. Besides, in data set [4] (lysin + gentamicin), the “FICI, Gentamicin” value was found to be 0.188. The “FICI, Imipenem” value in data set [4] (lysin + imipenem) was 0.039. Further, in data set [4] (lysin + meropenem), the “FICI, Meropenem” value stood at 0.250. For the same molecule, the “FICI, Piperacillin” value in data set [4] (lysin + piperacillin) stood at 0.531. For the same molecule, the “FICI, Rifampicin” value in data set [4] (lysin + rifampicin) was 0.125. Further, the “FICI, Tobramycin” value in data set [4] (lysin + tobramycin) stood at 0.188. In data set [1], the “MBEC” value is 0.125 µg/mL. The “bactericidal activity in the time-kill assay format” value in the data set with P. aeruginosa [2] (3-hour timepoint, 10 μg/mL, in either CAA/HuS or HEPES buffer) is recorded as “bactericidal activity”. Besides, the “Log10 CFU/mL T = 3 hr” value with P. aeruginosa [2] (setting [5]) and in the data set with P. aeruginosa [2] (setting [6]) was <3.7‡ Log10 CFU/mL throughout. In addition, the “Log10 CFU/mL T = l hr” value in the data set with P. aeruginosa [2] (CAA/HuS) is listed as 5.7 Log10 CFU/mL; in the data set with P. aeruginosa [2] (setting [6]), 6.4 Log10 CFU/mL. Further, the “MIC (μg/mL) in CAA” value against P. aeruginosa [3] amounted to 8 µg/mL. The “MIC (μg/mL in CAA/HuS)” value against P. aeruginosa [3] was found to be 8 µg/mL. Besides, the hemolytic activity result with human erythrocytes was “no hemolytic activity whatsoever”.

B4: GN105: Native lysin, GenBank WP_016046696.1, SEQ ID NO: 25 (protein, listed as Pseudomonas aeruginosa)
chain: MAVVSEKTAGGRNVLAFLDMLAWSEGTSTIRGSDNGYNVVVGGGLFNGYADHPRLKVYLPRYKVYSTAAGRYQLLSRYWDAYRESLALKGGFTPSNQDLVALQQIKERRSLADIQAGRLADAVQKCSNIWASLPGAGYGQREHSLDDLTAHYLAAGGVLS
B4: the “MBEC” value in data set [1] was found to be 4 µg/mL. In the data set on P. aeruginosa [2] (setting [5]), the “Log10 CFU/mL T = 3 hr” value is listed as 6.3 Log10 CFU/mL. The “Log10 CFU/mL T = l hr” value in the data set on P. aeruginosa [2] (CAA/HuS) was 7.0 Log10 CFU/mL. In the data set on P. aeruginosa [2] (setting [6]), the “Log10 CFU/mL T = 3 hr” value is <3.7 Log10 CFU/mL and the “Log10 CFU/mL T = l hr” value stood at 6.6 Log10 CFU/mL. Also, in the data set with P. aeruginosa [3], the “MIC (μg/mL) in CAA” value is >128 µg/mL and the “MIC (μg/mL in CAA/HuS)” value amounted to 32 µg/mL. In addition, the hemolytic activity entry in the data set with human erythrocytes was “no hemolytic activity whatsoever”.

Source of the values: patent US20220160843A1 (priority 2019, published 2022).
